According to paper PMC2920321, “Characterization of ftsZ Mutations that Render Bacillus subtilis Resistant to MinC” (PLoS ONE, 2010):

Molecular target: the molecule itself
Assay: sedimentation of polymers by ultracentrifugation; FtsZ 10 µM, pH 6.5 buffer, with ZapA (10 µM), without DEAE-dextran

B1: FtsZ8 (FtsZ S219L) (natural protein, B. subtilis, UniProt P17865 1-382, looked up)
chain: MLEFETNIDGLASIKVIGVGGGGNNAVNRMIENEVQGVEYIAVNTDAQALNLSKAEVKMQIGAKLTRGLGAGANPEVGKKAAEESKEQIEEALKGADMVFVTAGMGGGTGTGAAPVIAQIAKDLGALTVGVVTRPFTFEGRKRQLQAAGGISAMKEAVDTLIVIPNDRILEIVDKNTPMLEAFREADNVLRQGVQGISDLIATPGLINLDFADVKTIMLNKGSALMGIGIATGENRAAEAAKKAISSPLLEAAIDGAQGVLMNITGGTNLSLYEVQEAADIVASASDQDVNMIFGSVINENLKDEIVVTVIATGFIEQEKDVTKPQRPSLNQSIKTHNQSVPKREPKREEPQQQNTVSRHTSQPADDTLDIPTFLRNRNKRG
notes: FtsZ, Bacillus subtilis, mutant ftsZ8; source: overexpression plasmid pSG5333 (Ptac-ftsZ8, derivative of pCXZ); purified essentially as described [21]
B1: binds.
